{"source": "patent US20230220048A1", "target": "recombinant human FcRn (human) (UniProt P55899)", "sequence (P55899 24-297)": "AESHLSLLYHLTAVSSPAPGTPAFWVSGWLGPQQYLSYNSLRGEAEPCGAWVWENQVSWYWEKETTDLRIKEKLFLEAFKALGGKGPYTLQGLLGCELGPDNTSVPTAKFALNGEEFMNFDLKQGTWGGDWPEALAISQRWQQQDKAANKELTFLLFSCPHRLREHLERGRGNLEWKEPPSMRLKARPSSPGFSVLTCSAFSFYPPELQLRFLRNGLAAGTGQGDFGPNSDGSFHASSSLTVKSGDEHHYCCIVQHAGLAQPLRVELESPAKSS", "assay": "SPR, pH 5.8 (comparison value, data not shown)", "data": [{"substance": "wild type HSA (from UniProt P02768 25-607)", "values": [{"measurement": "Kd", "result": "1 to 2", "unit": "µM"}]}]}
